Measurements from patent publication US20100291540A1.

Key:
[1] = target: starch binding domain derived from Aspergillus niger glucoamylase (AnSBD) (Aspergillus niger) (UniProt P69328); experiment: competition sandwich ELISA, 250 nM gp140 premixed with panel, AnSBD-coated plate; competes with the panel's HIV antigen
[2] = target: starch binding domain derived from Rhizopus oryzae glucoamylase (RoSBD) (Rhizopus oryzae) (UniProt P07683); experiment: competition sandwich ELISA, 250 nM gp140 premixed with panel, RoSBD-coated plate; competes with the panel's HIV antigen

HIV1 gp140 antigen
inhibition rate [1]: 40.1%
inhibition rate [2]: 42.9%
